Assay results as given in publication PMC10148854, “A link between STK signalling and capsular polysaccharide synthesis in Streptococcus suis” (Nature Communications, 2023).

Columns and labels:
CpsB (rCpsB) = biological target: T1, CpsB (rCpsB) (Streptococcus suis, UniProt Q9X4U8); assay: colorimetric phosphatase assay, absorbance […] nm; type: biochemical; conditions: 50 nM enzyme, 16 uM pNPP, 1 mM MnCl2, 20 mM Tris pH 8.0, 150 mM NaCl, 37 °C
T1 construct: gene cps2D; rs02785 in pET-28a, His-tag, expressed in E. coli BL21(DE3), HisTrap purified; capsule locus tyrosine phosphatase (PHP type, Mn-dependent)

[1] = biological target: CcpS, as crystallised (Streptococcus suis); assay: crystal structure; sitting-drop vapour diffusion at 277 K; 0.1 M Tris-HCl pH 8.0, 15% ethanol; 1.6 Å; molecular replacement with IreB (PDB 5US5)
[2] = biological target: rCpsB-His (Streptococcus suis); assay: SPR

`O=[N+]([O-])c1ccc(OP(=O)(O)O)cc1` [pNPP, p-nitrophenyl phosphate] was tested, and the relative activity (CpsB (rCpsB)) was “Colorimetric phosphatase assays of CpsB activity were performed using p-nitrophenyl phosphate (pNPP)”.

Molecule CcpS, as crystallised (natural protein) has a stoichiometry N [1] of 2.

rCcpS-T4VT7V (natural protein) was tested, and the fold higher affinity than rCcpS-T4ET7E [2] was over 10 fold.
